For 1 molecule, Kd results are on record in paper doi:10.1101/2025.08.03.668247, “The structure of Egalitarian in complex with the K10 mRNA localization signal reveals a modular binding surface required for function”.

What all share (assay): fluorescence anisotropy; FA: 20 mM HEPES-NaOH pH 7.5, 100 mM NaCl, 10% glycerol, 20 C, 10 nM FAM-RNA; competition: 150 nM Egl512-819 + 10 nM FAM-K10 TLS, same buffer
Holding throughout (conditions): protein: recombinant; tags: N-terminal GST; label: 5'-6-FAM; hairpin with two bulges
(In general: Fluorescence polarisation rises when a labelled molecule tumbles more slowly, as on binding a larger partner.)

The target of data set [1] is T1, K758A (Drosophila melanogaster, UniProt Q9W1K4 512-819, K758A).
T1 sequence: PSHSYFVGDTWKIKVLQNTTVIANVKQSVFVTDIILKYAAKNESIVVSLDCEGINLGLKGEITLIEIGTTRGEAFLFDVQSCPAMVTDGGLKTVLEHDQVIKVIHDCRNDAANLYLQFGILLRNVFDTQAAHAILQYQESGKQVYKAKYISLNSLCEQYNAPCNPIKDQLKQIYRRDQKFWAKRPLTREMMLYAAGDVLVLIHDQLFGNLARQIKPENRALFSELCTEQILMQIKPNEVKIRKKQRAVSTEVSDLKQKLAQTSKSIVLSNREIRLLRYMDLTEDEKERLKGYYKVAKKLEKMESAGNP

Data set [2] concerns the target T2, EXO-L (Egl512-770) (Drosophila melanogaster, UniProt Q9W1K4 512-770).
T2 sequence: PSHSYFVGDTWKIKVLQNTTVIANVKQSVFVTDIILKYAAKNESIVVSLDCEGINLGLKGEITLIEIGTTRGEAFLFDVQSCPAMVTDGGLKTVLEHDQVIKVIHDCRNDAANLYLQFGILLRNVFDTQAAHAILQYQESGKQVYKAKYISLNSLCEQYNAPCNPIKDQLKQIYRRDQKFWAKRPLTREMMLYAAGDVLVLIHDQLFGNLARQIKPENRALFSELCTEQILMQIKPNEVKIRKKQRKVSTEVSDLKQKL

The target of data set [3] is T3, R785E (Drosophila melanogaster, UniProt Q9W1K4 512-819, R785E).
T3 sequence: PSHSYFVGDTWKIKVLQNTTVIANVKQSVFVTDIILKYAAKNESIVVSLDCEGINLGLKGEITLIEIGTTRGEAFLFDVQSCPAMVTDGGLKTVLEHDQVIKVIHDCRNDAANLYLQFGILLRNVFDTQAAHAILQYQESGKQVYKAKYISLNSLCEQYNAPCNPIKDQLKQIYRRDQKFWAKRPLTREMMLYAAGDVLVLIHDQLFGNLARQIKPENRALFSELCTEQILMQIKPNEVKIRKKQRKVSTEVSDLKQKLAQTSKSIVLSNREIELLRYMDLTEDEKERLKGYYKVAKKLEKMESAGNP

Data set [4] has as its target T4, D617A/R619A/N620A (Drosophila melanogaster, UniProt Q9W1K4 512-819, D617A;R619A;N620A).
T4 sequence: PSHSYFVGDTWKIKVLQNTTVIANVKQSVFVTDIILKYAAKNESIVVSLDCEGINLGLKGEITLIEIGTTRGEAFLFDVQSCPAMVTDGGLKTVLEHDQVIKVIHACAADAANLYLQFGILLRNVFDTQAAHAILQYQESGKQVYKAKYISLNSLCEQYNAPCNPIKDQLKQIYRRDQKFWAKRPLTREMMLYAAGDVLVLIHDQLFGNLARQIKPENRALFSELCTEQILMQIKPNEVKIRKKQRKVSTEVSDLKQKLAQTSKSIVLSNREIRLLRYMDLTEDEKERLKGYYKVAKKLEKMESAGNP

For data set [5], the target named is T5, Egl1-819 (Drosophila melanogaster, UniProt Q9W1K4 1-819).
T5 sequence: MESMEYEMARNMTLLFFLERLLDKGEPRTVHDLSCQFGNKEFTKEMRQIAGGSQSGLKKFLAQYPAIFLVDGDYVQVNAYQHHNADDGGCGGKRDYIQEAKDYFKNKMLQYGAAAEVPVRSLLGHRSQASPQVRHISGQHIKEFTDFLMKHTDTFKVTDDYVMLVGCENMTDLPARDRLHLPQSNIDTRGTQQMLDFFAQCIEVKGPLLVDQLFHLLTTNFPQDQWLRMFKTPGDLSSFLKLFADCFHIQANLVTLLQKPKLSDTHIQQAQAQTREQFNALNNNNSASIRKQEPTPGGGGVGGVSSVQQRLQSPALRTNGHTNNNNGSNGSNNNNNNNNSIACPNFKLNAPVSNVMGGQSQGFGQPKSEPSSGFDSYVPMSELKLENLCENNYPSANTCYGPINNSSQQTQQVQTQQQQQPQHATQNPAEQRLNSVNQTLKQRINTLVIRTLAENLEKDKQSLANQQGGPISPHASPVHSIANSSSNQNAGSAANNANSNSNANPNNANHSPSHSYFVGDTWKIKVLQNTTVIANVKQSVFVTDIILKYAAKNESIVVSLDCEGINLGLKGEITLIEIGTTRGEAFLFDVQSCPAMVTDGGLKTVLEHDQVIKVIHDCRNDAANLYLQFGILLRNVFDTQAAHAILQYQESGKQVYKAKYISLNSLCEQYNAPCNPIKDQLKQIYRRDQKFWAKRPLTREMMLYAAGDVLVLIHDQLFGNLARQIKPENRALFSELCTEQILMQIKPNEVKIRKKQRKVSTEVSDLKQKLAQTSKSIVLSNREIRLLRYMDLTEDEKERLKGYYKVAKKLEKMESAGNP

Broadly, the Kd is the equilibrium constant for the complex coming apart. For CUUGAUUGUAUUUUUAAAUUAAUUCUUAAAAACUACAAAUUAAG (structured_RNA) [K10 TLS (FAM)], the equilibrium dissociation constant (Kd) in data set [1] stood at 319 ± 19 nM; in data set [2] it was 807 ± 104 nM; in data set [3], 210 ± 5 nM; in data set [4] it was 273 ± 12 nM; in data set [5] it was 127 ± 7 nM.
